Test results published in paper PMC5397179 (2017).

B1: Biotinylated full length PcrA (Geobacillus stearothermophilus), wild type [modified: biotin; biotin] [Geobacillus stearothermophilus] / LigA (NAD+-dependent DNA ligase), Bacillus subtilis [B. subtilis 168 (endogenous in the cell extract)] (parent complex)
chain 1: MNFLSEQLLAHLNKEQQEAVRTTEGPLLIMAGAGSGKTRVLTHRIAYLMAEKHVAPWNILAITFTNKAAREMRERVQSLLGGAAEDVWISTFHSMCVRILRRDIDRIGINRNFSILDPTDQLSVMKTILKEKNIDPKKFEPRTILGTISAAKNELLPPEQFAKRASTYYEKVVSDVYQEYQQRLLRNHSLDFDDLIMTTIQLFDRVPDVLHYYQYKFQYIHIDEYQDTNRAQYTLVKKLAERFQNICAVGDADQSIYRWRGADIQNILSFERDYPNAKVILLEQNYRSTKRILQAANEVIEHNVNRKPKRIWTENPEGKPILYYEAMNEADEAQFVAGRIREAVERGERRYRDFAVLYRTNAQSRVMEEMLLKANIPYQIVGGLKFYDRKEIKDILAYLRVIANPDDDLSLLRIINVPKRGIGASTIDKLVRYAADHELSLFEALGELEMIGLGAKAAGALAAFRSQLEQWTQLQEYVSVTELVEEVLDKSGYREMLKAERTIEAQSRLENLDEFLSVTKHFENVSDDKSLIAFLTDLALISDLDELDGTEQAAEGDAVMLMTLHAAKGLEFPVVFLIGMEEGIFPHNRSLEDDDEMEEERRLAYVGITRAEEELVLTSAQMRTLFGNIQMDPPSRFLNEIPAHLLETASRRQAGASRPAVSRPQASGAVGSWKVGDRANHRKWGIGTVVSVRGGGDDQELDIAFPSPIGIKRLLAKFAPIEKV
chain 2: MDKETAKQRAEELRRTINKYSYEYYTLDEPSVPDAEYDRLMQELIAIEEEHPDLRTPDSPTQRVGGAVLEAFQKVTHGTPMLSLGNAFNADDLRDFDRRVRQSVGDDVAYNVELKIDGLAVSLRYEDGYFVRGATRGDGTTGEDITENLKTIRNIPLKMNRELSIEVRGEAYMPKRSFEALNEERIKNEEEPFANPRNAAAGSLRQLDPKIAAKRNLDIFVYSIAELDEMGVETQSQGLDFLDELGFKTNQERKKCGSIEEVITLIDELQAKRADLPYEIDGIVIKVDSLDQQEELGFTAKSPRWAIAYKFPAEEVVTKLLDIELNVGRTGVITPTAILEPVKVAGTTVSRASLHNEDLIKEKDIRILDKVVVKKAGDIIPEVVNVLVDQRTGEEKEFSMPTECPECGSELVRIEGEVALRCINPECPAQIREGLIHFVSRNAMNIDGLGERVITQLFEENLVRNVADLYKLTKERVIQLERMGEKSTENLISSIQKSKENSLERLLFGLGIRFIGSKAAKTLAMHFESLENLKKASKEELLAVDEIGEKMADAVITYFHKEEMLELLNELQELGVNTLYKGPKKVKAEDSDSYFAGKTIVLTGKLEELSRNEAKAQIEALGGKLTGSVSKNTDLVIAGEAAGSKLTKAQELNIEVWNEEQLMGELKK
B2: Biotinylated full length PcrA (Geobacillus stearothermophilus), wild type [modified: biotin; biotin] [Geobacillus stearothermophilus] / DNA pol I, Bacillus subtilis [B. subtilis 168 (endogenous in the cell extract)] (parent complex)
chain 1: B1 chain 1
chain 2: MTERKKLVLVDGNSLAYRAFFALPLLSNDKGVHTNAVYGFAMILMKMLEDEKPTHMLVAFDAGKTTFRHGTFKEYKGGRQKTPPELSEQMPFIRELLDAYQISRYELEQYEADDIIGTLAKSAEKDGFEVKVFSGDKDLTQLATDKTTVAITRKGITDVEFYTPEHVKEKYGLTPEQIIDMKGLMGDSSDNIPGVPGVGEKTAIKLLKQFDSVEKLLESIDEVSGKKLKEKLEEFKDQALMSKELATIMTDAPIEVSVSGLEYQGFNREQVIAIFKDLGFNTLLERLGEDSAEAEQDQSLEDINVKTVTDVTSDILVSPSAFVVEQIGDNYHEEPILGFSIVNETGAYFIPKDIAVESEVFKEWVENDEQKKWVFDSKRAVVALRWQGIELKGAEFDTLLAAYIINPGNSYDDVASVAKDYGLHIVSSDESVYGKGAKRAVPSEDVLSEHLGRKALAIQSLREKLVQELENNDQLELFEELEMPLALILGEMESTGVKVDVDRLKRMGEELGAKLKEYEEKIHEIAGEPFNINSPKQLGVILFEKIGLPVVKKTKTGYSTSADVLEKLADKHDIVDYILQYRQIGKLQSTYIEGLLKVTRPDSHKVHTRFNQALTQTGRLSSTDPNLQNIPIRLEEGRKIRQAFVPSEKDWLIFAADYSQIELRVLAHISKDENLIEAFTNDMDIHTKTAMDVFHVAKDEVTSAMRRQAKAVNFGIVYGISDYGLSQNLGITRKEAGAFIDRYLESFQGVKAYMEDSVQEAKQKGYVTTLMHRRRYIPELTSRNFNIRSFAERTAMNTPIQGSAADIIKKAMIDMAAKLKEKQLKARLLLQVHDELIFEAPKEEIEILEKLVPEVMEHALALDVPLKVDFASGPSWYDAK
B3: Biotinylated full length PcrA (Geobacillus stearothermophilus), wild type [modified: biotin; biotin] [Geobacillus stearothermophilus] / UvrB, Bacillus subtilis [B. subtilis 168 (endogenous in the cell extract)] (parent complex)
chain 1: B1 chain 1
chain 2: MKDRFELVSKYQPQGDQPKAIEKLVKGIQEGKKHQTLLGATGTGKTFTVSNLIKEVNKPTLVIAHNKTLAGQLYSEFKEFFPNNAVEYFVSYYDYYQPEAYVPQTDTFIEKDASINDEIDKLRHSATSALFERRDVIIIASVSCIYGLGSPEEYREMVVSLRTEMEIERNELLRKLVDIQYARNDIDFQRGTFRVRGDVVEIFPASRDEHCVRVEFFGDEIERIREVDALTGEILGDRDHVAIFPASHFVTRAEKMEKAIQNIEKELEEQLKVMHENGKLLEAQRLEQRTRYDLEMMREMGFCSGIENYSRHLTLRPPGSTPYTLLDYFPDDFMIVVDESHVTIPQVRGMFNGDQARKQVLVDHGFRLPSALDNRPLRFEEFEKHMHNIVYVSATPGPYEIEHTDEMVEQIIRPTGLLDPLIDVRPIEGQIDDLIGEIQARIERNERVLVTTLTKKMSEDLTDYLKEIGIKVNYLHSEIKTLERIEIIRDLRLGKYDVLVGINLLREGLDIPEVSLVAILDADKEGFLRSERSLIQTIGRAARNAEGRVIMYADKITKSMEIAINETKRRREQQERFNEEHGITPKTINKEIRDVIRATVAAEDKAEYKTKAAPKLSKMTKKERQKVVEQMEHEMKEAAKALDFERAAELRDLLLELKAEG

Variants of: B1
Assay: pulldown quantified by mass spectrometry; parent: 26; read off a plot

screen value	Variant
~25	chain 1 L714A
~21	chain 1 K712A

Variants of: B2
Assay: pulldown quantified by mass spectrometry; parent: 97; read off a plot

screen value	Variant
~49	chain 1 K712A
~70	chain 1 L714A

Variants of: B3
Assay: pulldown quantified by mass spectrometry; parent: 12; read off a plot

screen value	Variant
~2.3	chain 1 L714A
~0	chain 1 K712A
